Reference: publication PMC9399289
pKd: −log10 of the molar value.

Target: T1, GST-SDE2-FLAG WT (human) (UniProt Q6IQ49)
T1 sequence: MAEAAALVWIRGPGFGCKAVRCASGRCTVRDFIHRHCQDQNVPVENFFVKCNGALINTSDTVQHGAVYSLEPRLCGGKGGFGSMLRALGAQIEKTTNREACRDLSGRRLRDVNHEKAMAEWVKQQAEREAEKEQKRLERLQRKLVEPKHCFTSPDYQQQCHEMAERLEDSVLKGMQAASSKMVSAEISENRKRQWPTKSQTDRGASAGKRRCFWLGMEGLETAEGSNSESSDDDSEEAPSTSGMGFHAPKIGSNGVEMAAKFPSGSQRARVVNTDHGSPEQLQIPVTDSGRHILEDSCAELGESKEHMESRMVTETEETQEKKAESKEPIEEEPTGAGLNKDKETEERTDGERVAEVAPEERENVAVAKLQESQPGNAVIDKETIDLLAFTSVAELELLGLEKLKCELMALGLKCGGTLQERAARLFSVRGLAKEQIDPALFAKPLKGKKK
Test: fluorescence anisotropy
Settings: EMSA: 10 mM Tris-HCl pH 7.5, 50 mM NaCl, 0.5 mM DTT, 0.05 mM EDTA, 3% glycerol, 0.05 mg/ml BSA (or 50 mM Na/K PO4 pH 6.0, 50 mM NaCl, 5 mM DTT), on ice …

GACGCTGCCGAATTCTACCAGTGCCTTGCTAGGACATCTTTGCCCACCTGCAGGTTCACCC (double strand) [60-mer dsDNA (EMSA1/EMSA2)]
pKd: 4.62
